Results taken from US20260242478A1 (published 2026).

Key:
[1] = target: T1, Anti-CD28 Fab (SEQ ID NOs: 696, 697); test: phage ELISA; captured anti-CD28 Fab pre-incubated with CD28 antigen as competitor, anti-M13 HRP;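 note: crude clonal phage supernatants added without washing after CD28 pre-incubation, bound phage detected with HRP anti-M13 antibody, reference wells got blocking buffer lacking CD28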
T1 construct: Biotinylated and captured on neutravidin coated plates in the phage ELISA
T1 sequence (VH, as listed by the source, chain 1 of 2): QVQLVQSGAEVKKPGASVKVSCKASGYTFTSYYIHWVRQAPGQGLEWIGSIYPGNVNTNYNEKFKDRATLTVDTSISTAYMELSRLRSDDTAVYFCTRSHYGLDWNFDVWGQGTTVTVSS
T1 sequence (VL, as listed by the source, chain 2 of 2): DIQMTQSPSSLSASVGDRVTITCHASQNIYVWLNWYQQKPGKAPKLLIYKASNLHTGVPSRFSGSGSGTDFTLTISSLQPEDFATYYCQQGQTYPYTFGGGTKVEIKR
Experimental: (§1) After panning, phage infected bacteria were plated out and colonies picked into 96 well blocks. Clonal phage was then amplified and separated from bacterial cells via centrifugation.
(§2) Clonal phage were harvested as crude supematants and screened via standard ELISAs. […] Prior to the addition of clonal phage, wells were incubated with blocking buffer and CD28 antigen or blocking buffer alone. Without washing or aspirating, clonal phage supematants were then added to the wells and incubated for a short time. Wells were then washed followed by detection of bound phage using a horse radish conjugated anti-M13 antibody. Clonal phage of interest were then sent for sequence analysis.

[2] = target: T1, Anti-CD28 Fab (SEQ ID NOs: 696, 697); test: phage ELISA; biotinylated anti-CD28 Fab on neutravidin plate, clonal phage supernatant, anti-M13 HRP
Experimental: as §1, §2

[3] = target: T2, Anti-CD28 Fab (SEQ ID NOs: 696, 697); test: phage binding ELISA, clonal phage on biotinylated anti-CD28 Fab captured on neutravidin plates;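 note: crude clonal phage supernatants added to wells pretreated with CD28 antigen or blocking buffer only, bound phage detected by HRP-linked anti-M13 antibody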
T2 construct: In the phage ELISA the Fab was biotinylated and captured on neutravidin coated plates
T2 sequence (VH, as listed by the source, chain 1 of 2): as the sequence (VH, as listed by the source, chain 1 of 2) above
T2 sequence (VL, as listed by the source, chain 2 of 2): as the sequence (VL, as listed by the source, chain 2 of 2) above
Experimental: as §1, §2

[4] = target: T2, Anti-CD28 Fab (SEQ ID NOs: 696, 697); test: phage binding ELISA on captured anti-CD28 Fab, wells pre-incubated with CD28 antigen as competitor;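 note: crude clonal phage supernatants added to wells preloaded with CD28 antigen, bound phage read by HRP-conjugated anti-M13 antibody, control wells got blocking buffer alone without CD28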
[5] = target: T3, Anti-CD28 Fab (SEQ ID NOs: 696, 697); test: phage ELISA; clonal phage on plate-captured biotinylated anti-CD28 Fab, anti-M13 HRP detection
T3 construct: Biotinylated and captured on neutravidin coated plates in the phage ELISA
T3 sequence (VH, as listed by the source, chain 1 of 2): as the sequence (VH, as listed by the source, chain 1 of 2) above
T3 sequence (VL, as listed by the source, chain 2 of 2): as the sequence (VL, as listed by the source, chain 2 of 2) above
Experimental: as §1, §2

[6] = target: T3, Anti-CD28 Fab (SEQ ID NOs: 696, 697); test: phage ELISA; clonal phage on plate-captured anti-CD28 Fab pre-incubated with CD28 antigen as competitor
Experimental: as §1, §2

[7] = target: T4, Anti-CD28 Fab (SEQ ID NOs: 696, 697); test: phage ELISA on plate-captured anti-CD28 Fab pre-incubated with CD28 antigen (competitor: CD28)
T4 construct: Biotinylated and captured on neutravidin coated plates in the phage ELISA
T4 sequence (VH, as listed by the source, chain 1 of 2): as the sequence (VH, as listed by the source, chain 1 of 2) above
T4 sequence (VL, as listed by the source, chain 2 of 2): as the sequence (VL, as listed by the source, chain 2 of 2) above
Experimental: as §1, §2

[8] = target: T4, Anti-CD28 Fab (SEQ ID NOs: 696, 697); test: phage ELISA, clonal phage on plate-captured biotinylated anti-CD28 Fab, anti-M13 HRP detection
Experimental: as §1, §2

Row | Binder | Anti-CD28 Fab (SEQ ID NOs: 696, 697) signal [3] | Anti-CD28 Fab signal in the presence of CD28 [4] | Anti-CD28 Fab signal in the presence of CD28 (phage binding ELISA) [7] | Anti-CD28 Fab signal (phage binding ELISA) [8] | other results
1 | YCDGHELKYMLKCL [Phage-952] |  |  |  |  | Phage binding ELISA, Anti-CD28 Fab signal in the presence of CD28 [1]: 0.08; Phage binding ELISA, Anti-CD28 Fab signal [2]: 1.62
2 | YCAGHSPQYMEKCL [Phage-956] |  |  |  |  | Phage binding ELISA, Anti-CD28 Fab signal in the presence of CD28 [1]: 0.06; Phage binding ELISA, Anti-CD28 Fab signal [2]: 1.61
3 | YCDGHRLEYLEKCL (tested as crude clonal phage supernatant) [Phage-966] | 1.6 | 0.06 |  |  | 
4 | YCSGHLPEYMWKCL (tested as crude clonal phage supernatant) [Phage-958] | 1.61 | 0.1 |  |  | 
5 | YCEGHAPVYMFKCL (tested as crude clonal phage supernatant) [Phage-997] |  |  |  |  | Phage binding ELISA, Anti-CD28 Fab signal [5]: 1.54; Phage binding ELISA, Anti-CD28 Fab signal in the presence of CD28 [6]: 0.08
6 | YCDGHSEAYMWKCL (tested as crude clonal phage supernatant) [Phage-969] | 1.59 | 0.07 |  |  | 
7 | YCDGHLQIYMGKCL (tested as crude clonal phage supernatant) [Phage-1002] |  |  |  |  | Phage binding ELISA, Anti-CD28 Fab signal [5]: 1.53; Phage binding ELISA, Anti-CD28 Fab signal in the presence of CD28 [6]: 0.06
8 | YCDGHAQEYMVKCL (tested as crude clonal phage supernatant) [Phage-960] | 1.61 | 0.06 |  |  | 
9 | YCDGHAEEYLLKCL [Phage-979] |  |  | 0.05 | 1.57 | 
10 | YCEGHLEEYMAKCL [Phage-954] |  |  |  |  | Phage binding ELISA, Anti-CD28 Fab signal in the presence of CD28 [1]: 0.07; Phage binding ELISA, Anti-CD28 Fab signal [2]: 1.62
11 | YCDGHAQEFIWKCL (tested as crude clonal phage supernatant) [Phage-968] | 1.6 | 0.1 |  |  | 
12 | YCEGHLGQYMEKCL (tested as crude clonal phage supernatant) [Phage-998] |  |  |  |  | Phage binding ELISA, Anti-CD28 Fab signal [5]: 1.54; Phage binding ELISA, Anti-CD28 Fab signal in the presence of CD28 [6]: 0.08
13 | YCAGHSSEYIPKCL [Phage-974] |  |  | 0.09 | 1.58 | 
14 | YCEGHLGIYMTKCL [Phage-980] |  |  | 0.08 | 1.57 | 
15 | YCEGHSWEHMEKCL [Phage-973] |  |  | 0.06 | 1.58 | 
16 | YCAGHSPEYMQKCL (tested as crude clonal phage supernatant) [Phage-961] | 1.6 | 0.08 |  |  | 
17 | YCDGHLPQYLQKCT [Phage-975] |  |  | 0.07 | 1.58 | 
18 | YCDGHSWQYMWKCI [Phage-981] |  |  | 0.09 | 1.57 | 
19 | YCDGHRVEYMAKCL [Phage-972] |  |  | 0.09 | 1.58 | 

Row | Binder | Anti-CD28 Fab (SEQ ID NOs: 696, 697) signal [3] | Anti-CD28 Fab signal in the presence of CD28 [4] | Anti-CD28 Fab signal in the presence of CD28 (phage binding ELISA) [7] | Anti-CD28 Fab signal (phage binding ELISA) [8] | other results
20 | YCEGHSAAYMQKCL (tested as crude clonal phage supernatant) [Phage-963] | 1.6 | 0.09 |  |  | 
21 | YCDGHSVKYMAKCL (tested as crude clonal phage supernatant) [Phage-957] | 1.61 | 0.06 |  |  | 
22 | YCAGHLDQYIEKCL (tested as crude clonal phage supernatant) [Phage-967] | 1.6 | 0.1 |  |  | 
23 | YCEGHLPQYMVKCL [Phage-977] |  |  | 0.07 | 1.58 | 
24 | YCEGHSVEYIGKCL [Phage-971] |  |  | 0.07 | 1.59 | 
25 | YCDGHAPEYLTKCL (tested as crude clonal phage supernatant) [Phage-1000] |  |  |  |  | Phage binding ELISA, Anti-CD28 Fab signal [5]: 1.53; Phage binding ELISA, Anti-CD28 Fab signal in the presence of CD28 [6]: 0.06
26 | YCEGHSEEFMSKCL [Phage-982] |  |  | 0.08 | 1.57 | 
27 | YCEGHLPLYMDKCL (tested as crude clonal phage supernatant) [Phage-962] | 1.6 | 0.08 |  |  | 
28 | YCEGHMPEYLQKCL (tested as crude clonal phage supernatant) [Phage-964] | 1.6 | 0.1 |  |  | 
29 | YCDGHSVEYKLKCM (tested as crude clonal phage supernatant) [Phage-959] | 1.61 | 0.06 |  |  | 
30 | YCDGHNGVYWWKCI (tested as crude clonal phage supernatant) [Phage-999] |  |  |  |  | Phage binding ELISA, Anti-CD28 Fab signal [5]: 1.53; Phage binding ELISA, Anti-CD28 Fab signal in the presence of CD28 [6]: 0.07
31 | YCQGHADEYMAKCL [Phage-978] |  |  | 0.08 | 1.58 | 
32 | YCEGHADEYMWKCL [Phage-970] |  |  | 0.06 | 1.59 | 
33 | YCDGHLLEYKAKCL [Phage-953] |  |  |  |  | Phage binding ELISA, Anti-CD28 Fab signal in the presence of CD28 [1]: 0.07; Phage binding ELISA, Anti-CD28 Fab signal [2]: 1.62
34 | YCEGHSIQYMTKCL (tested as crude clonal phage supernatant) [Phage-1001] |  |  |  |  | Phage binding ELISA, Anti-CD28 Fab signal [5]: 1.53; Phage binding ELISA, Anti-CD28 Fab signal in the presence of CD28 [6]: 0.13
35 | YCDGHELQYMAKCL (tested as crude clonal phage supernatant) [Phage-965] | 1.6 | 0.08 |  |  | 
36 | YCDGHAKEYIQKCL [Phage-976] |  |  | 0.06 | 1.58 | 
37 | YCDGHSPEYMLKCL [Phage-955] |  |  |  |  | Phage binding ELISA, Anti-CD28 Fab signal in the presence of CD28 [1]: 0.07; Phage binding ELISA, Anti-CD28 Fab signal [2]: 1.61
